Results as given in patent US20230357405A1.

Target: human PD-1 expressed on cells (CHO human PD-1 cells) (human) (UniProt Q15116)
Assay: cell-based or functional assay

Chain of human PD-1 expressed on cells (CHO human PD-1 cells) (human) (Q15116 21-288): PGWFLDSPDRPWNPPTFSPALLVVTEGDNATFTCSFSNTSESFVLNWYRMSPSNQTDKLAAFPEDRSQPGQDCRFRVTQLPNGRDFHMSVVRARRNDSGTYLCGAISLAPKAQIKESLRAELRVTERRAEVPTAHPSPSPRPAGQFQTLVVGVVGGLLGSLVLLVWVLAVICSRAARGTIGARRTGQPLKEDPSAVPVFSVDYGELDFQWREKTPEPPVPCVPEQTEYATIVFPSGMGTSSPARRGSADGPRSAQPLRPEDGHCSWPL

EC50 (M); human PD-1 reporter gene assay: 1e-08 M
EC50 (M); reporter assay: 1e-08 M
B1: 1.57-4GS-MSA binder (bispecific antibody, part only; not given: mouse serum albumin binding VH, part only)
chain, part: QVQLVESGGGLVKPGGSLRLSCAASGFTFSDNSMTWMRQAPGKGLEWVSYISSGGGVIFYADSVKGRFTISRDNAKNSLYLQMNSLRADDTAVYYCAREAPLRLGESPHDAFDISGQGTMVTVSSGGGGSGGGGSGGGGSGGGGS
